Results taken from US20240117030A1 (Pfizer, published 2024).

T1: recombinant human IL-33 (human, UniProt O95760 112-270, limits assumed)
T1 sequence (looked up): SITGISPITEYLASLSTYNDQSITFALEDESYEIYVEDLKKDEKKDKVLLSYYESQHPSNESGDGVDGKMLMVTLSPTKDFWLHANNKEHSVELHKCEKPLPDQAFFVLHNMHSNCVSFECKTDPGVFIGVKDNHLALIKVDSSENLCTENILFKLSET


Experiments:
recombinant human IL-33 = target: T1, recombinant human IL-33; assay: cell-based or functional assay
human TSLP (long form) = target: T2, human TSLP (long form) (human, UniProt Q969D9 29-159, Biotinylated on the Avi tag in some assays; glycosylated (Expi293F expression)); assay: bridging sandwich ELISA: human TSLP coated, Tri-Fab-Fc titrated, IL-13-FLAG added, detected with HRP anti-FLAG (OD450nm)
T2 construct: biotinylated in some assays; also called lfhTSLP; hTSLP
Method: For this method, 25 μL/well of 1 μg/mL recombinant human TSLP (in PBS pH7.2) was coated onto a 384-well clear flat bottom Maxisorp plates (NUNC) overnight at 4° C. and blocked with PBS without Mg²⁺ and Ca²⁺ with 3% BSA. Serially diluted Tri-Fab-Fc variants were added to the plates and incubated for 1 hour at room temperature (RT). After washing away the unbound Tri-Fab-Fc by washing with buffer (PBS without Mg²⁺ and Ca²⁺ with 0.05% tween 20), 25 μL/well of 100 ng/mL IL-13-FLAG (Pfizer Inc) was added to the plates and incubated at RT for one hour. The Tri-Fab-Fc bound to both TSLP and IL-13 was detected by HRP conjugated anti-FLAG secondary antibody (Sigma, Cat #A8592).

Binder	IC50 (mean), HEK-Blue IL-33 SEAP (recombinant human IL-33)	EC50 (read off the curve) (human TSLP (long form))
IL33-0726 (antibody, human IgG1, kappa, V domains shown) VH: EVQLVESGGGLVQPGGSLRLSCAASGFTFSSYWMYWVRQAPGKGLEWVAAITPNAGEDYYPESVKGRFTISRDNAKNSLYLQMNSLRAEDTAVYYCARGQYYYTKYSLGYWGQGTLVTVSS VL: DIQMTQSPSSLSASVGDRVTITCRASQPIHNHLDWYQQKPGKAPKLLIYFGKNLQEGVPSRFSGSGSGTDFTLTISSLQPEDFATYYCFQYKKGWSFGGGTKVEIKR	0.00827 nM	
IL413TSLP-0001 (trispecific antibody, human IgG1, kappa, lambda) heavy: EVTLRESGPALVKPTQTLTLTCTFSGFSLSNFGEGLSWIRQPPGKGLEWLAHIYWDDDKRYNPSLKSRLTISKDTSRNQVVLTMTNMDPVDTATYYCARRETVFYWYFDVWGQGTTVTVSSASTKGPSVFPEAPSSKSTSGGTAALGCLVKDYFPEPVTVSWNSGALTSGVHTFPAVLQSSGLYSLGSVVTVPSSSLGTQTYICNVNHKPSNTKVDKKVEPKSCDKTHTCPPCPAPEAAGAPSVFLFPPKPKDTLMISRTPEVTCVVVDVSHEDPEVKFNWYVDGVEVHNAKTKPREEQYNSTYRVVSVLTVLHQDWLNGKEYKCKVSNKALPAPIEKTISKAKGQPREPQVYTLPPCREEMTKNQVSLSCAVKGFYPSDIAVEWESNGQPENNYKTTPPVLDSDGSFFLVSKLTVDKSRWQQGNVFSCSVMHEALHNHYTQKSLSLSPGK chain 1: QMQLVESGGGVVQPGRSLRLSCAASGFTFRTYGMHWVRQAPGKGLEWVAVIWYDGSNKHYADSVKGRFTITRDNSKNTLNLQMNSLRAEDTAVYYCARAPQWELVHEAFDIWGQGTMVTVSSGQPKAAPSVTLFPPSSEELQANKATLVCLISDFYPGAVTVAWKADSSPVKAGVETTTPSKQSNNKYAASSYLSLTPEQWKSHRSYSCQVTHEGSTVEKTVAPTECSGGGGSEVQLVESGGGLVQPGGSLRLSCAASGFTFSSYAMSWVRQAPGKGLEWVASISSGDTTYYPDSVKGRFTISRDNAKNSLYLQMNSLRAEDTAVYYCARNEGYYFGLTLWGQGTLVTVSSASTKGPSVFPKAPSSKSTSGGTAALGCLVKDYFPEPVTVSWNSGALTSGVHTFPAVLQSSGLYSLSSSVTVPSSSLGTQTYICNVNHKPSNTKVDKKVEPKSCDKTHTCPPCPAPEAAGAPSVFLFPPKPKDTLMISRTPEVTCVVVDVSHEDPEVKFNWYVDGVEVHNAKTKPREEQYNSTYRVVSVLTVLHQDWLNGKEYKCKVSNKALPAPIEKTISKAKGQPREPQVCTLPPSREEMTKNQVSLWCLVKGFYPSDIAVEWESNGQPENNYKTTPPVLDSDGSFFLYSKLTVDKSRWQQGNVFSCSVMHEALHNHYTQKSLSLSPGK light 1: DIQMTQSPSSLSASVGDRVTITCKASQSVDEDGDSYMNWYQQKPGKAPKLLIYAASNLESGVPSRFSGSGSGTDFTLTISSLQPEDFATYYCQQSNEDPPTFGGGTKVEIKRTVAAPSVFIFPPSDEQLKSGTASVSCLLNNFYPREAKVQWKVDNALQSGNSQESVTEQDSKDSTYSLKSTLTLSKADYEKHKVYACEVTHQGLSSPVTKSFNRGEC light 2: DIQMTQSPSSLSASVGDRVTITCKASESVDHFGWSLVHWYQQKPGKAPKLLIYRASNLESGVPSRFSGSGSGTDFTLTISSLQPEDFATYYCQQSNEDPWTFGGGTKVEIKRTVAAPSVFIFPPSDEQLKSGTASVSCLLNNFYPREAKVQWKVDNALQSGNSQESVTEQDSKDSTYSLDSTLTLSKADYEKHKVYACEVTHQGLSSPVTKSFNRGEC chain 2: SYVLTQPPSVSVAPGQTARITCGGNNLGSKSVHWYQQKPGQAPVLVVYDDSDRPSWIPERFSGSNSGNTATLTISRGEAGDEADYYCQVWDSSSDHVVFGGGTKLTVLASTKGPSVFPLAPSSKSTSGGTAALGCLVKDYFPEPVTVSWNSGALTSGVHTFPAVLQSSGLYSLSSVVTVPSSSLGTQTYICNVNHKPSNTKVDKKVEPKSC		~0.6 nM

More lines, now with the values ahead:

IC50 (mean), HEK-Blue IL-33 SEAP (recombinant human IL-33)	EC50 (read off the curve) (human TSLP (long form))	Binder
0.0428 nM		IL33-158-152 (antibody, human IgG1, kappa, V domains shown) VH: EVQLVESGGGLVQPGGSLRLSCAASGFTFSSYWMYWVRQAPGKGLEWVAAITPNAGEDYYPESVKGRFTISRDNAKNSLYLQMNSLRAEDTAVYYCARGHYYYTSYSLGYWGQGTLVTVSS VL: DIQMTQSPSSLSASVGDRVTITCKASQNINKHLDWYQQKPGKAPKLLIYFTNNLQTGVPSRFSGSGSGTDFTLTISSLQPEDFATYYCFQYNQGWTFGGGTKVEIKR
	~0.6 nM	IL413TSLP-0008 (trispecific antibody, human IgG1, kappa, lambda) heavy: EVQLVESGGGLVQPGGSLRLSCAASGFTFSSYAMSWVRQAPGKGLEWVASISSGDTTYYPDSVKGRFTISRDNAKNSLYLQMNSLRAEDTAVYYCARNEGYYFGLTLWGQGTLVTVSSASTKGPSVFPKAPSSKSTSGGTAALGCLVKDYFPEPVTVSWNSGALTSGVHTFPAVLQSSGLYSLSSSVTVPSSSLGTQTYICNVNHKPSNTKVDKKVEPKSCDKTHTCPPCPAPEAAGAPSVFLFPPKPKDTLMISRTPEVTCVVVDVSHEDPEVKFNWYVDGVEVHNAKTKPREEQYNSTYRVVSVLTVLHQDWLNGKEYKCKVSNKALPAPIEKTISKAKGQPREPQVCTLPPSREEMTKNQVSLWCLVKGFYPSDIAVEWESNGQPENNYKTTPPVLDSDGSFFLYSKLTVDKSRWQQGNVFSCSVMHEALHNHYTQKSLSLSPGK chain 1: SYVLTQPPSVSVAPGQTARITCGGNNLGSKSVHWYQQKPGQAPVLVVYDDSDRPSWIPERFSGSNSGNTATLTISRGEAGDEADYYCQVWDSSSDHVVFGGGTKLTVLASTKGPSVFPLAPSSKSTSGGTAALGCLVKDYFPEPVTVSWNSGALTSGVHTFPAVLQSSGLYSLSSVVTVPSSSLGTQTYICNVNHKPSNTKVDKKVEPKSCGGGGSEVTLRESGPALVKPTQTLTLTCTFSGFSLSNFGEGLSWIRQPPGKGLEWLAHIYWDDDKRYNPSLKSRLTISKDTSRNQVVLTMTNMDPVDTATYYCARRETVFYWYFDVWGQGTTVTVSSASTKGPSVFPEAPSSKSTSGGTAALGCLVKDYFPEPVTVSWNSGALTSGVHTFPAVLQSSGLYSLGSVVTVPSSSLGTQTYICNVNHKPSNTKVDKKVEPKSCDKTHTCPPCPAPEAAGAPSVFLFPPKPKDTLMISRTPEVTCVVVDVSHEDPEVKFNWYVDGVEVHNAKTKPREEQYNSTYRVVSVLTVLHQDWLNGKEYKCKVSNKALPAPIEKTISKAKGQPREPQVYTLPPCREEMTKNQVSLSCAVKGFYPSDIAVEWESNGQPENNYKTTPPVLDSDGSFFLVSKLTVDKSRWQQGNVFSCSVMHEALHNHYTQKSLSLSPGK light 1: DIQMTQSPSSLSASVGDRVTITCKASESVDHFGWSLVHWYQQKPGKAPKLLIYRASNLESGVPSRFSGSGSGTDFTLTISSLQPEDFATYYCQQSNEDPWTFGGGTKVEIKRTVAAPSVFIFPPSDEQLKSGTASVSCLLNNFYPREAKVQWKVDNALQSGNSQESVTEQDSKDSTYSLDSTLTLSKADYEKHKVYACEVTHQGLSSPVTKSFNRGEC light 2: DIQMTQSPSSLSASVGDRVTITCKASQSVDEDGDSYMNWYQQKPGKAPKLLIYAASNLESGVPSRFSGSGSGTDFTLTISSLQPEDFATYYCQQSNEDPPTFGGGTKVEIKRTVAAPSVFIFPPSDEQLKSGTASVSCLLNNFYPREAKVQWKVDNALQSGNSQESVTEQDSKDSTYSLKSTLTLSKADYEKHKVYACEVTHQGLSSPVTKSFNRGEC chain 2: QMQLVESGGGVVQPGRSLRLSCAASGFTFRTYGMHWVRQAPGKGLEWVAVIWYDGSNKHYADSVKGRFTITRDNSKNTLNLQMNSLRAEDTAVYYCARAPQWELVHEAFDIWGQGTMVTVSSGQPKAAPSVTLFPPSSEELQANKATLVCLISDFYPGAVTVAWKADSSPVKAGVETTTPSKQSNNKYAASSYLSLTPEQWKSHRSYSCQVTHEGSTVEKTVAPTECS
